Experimental data published in US20200087364A1 (IMMATICS BIOTECHNOLOGIES, published 2020).

biological target: T1, HLA-A*01:01 (human); experiment: UV-ligand exchange, anti-b2m ELISA
T1 construct: MHC class I monomer first loaded with a UV-sensitive peptide (not identified) that is cleaved by UV irradiation and exchanged for the tested peptide; captured on streptavidin plates, detected with anti-β2m; also called peptide-receptive MHC molecules
Outline: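 Peptide–MHC complexes made by UV-ligand exchange of a UV-cleavable peptide; exchange yield measured by ELISA on streptavidin-coated plates, samples diluted 100-fold, 1 h 37 °C. Detection with 2 ug/ml HRP anti-β2m, TMB, A450; refolded HLA-A*02:01/MLA-001 monomer standards 15-500 ng/ml.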

Question: For VAGLEAGVLY, which peptide exchange yield is on record?
Answer: Its peptide exchange yield is 20 to 50%.

Question: How did the peptide exchange yield turn out when MADRGEARL was run?
Answer: The peptide exchange yield was 20 to 50%.

Question: YPVVVAESMY was tested. Which peptide exchange yield did it give?
Answer: Its peptide exchange yield is 20 to 50%.

Question: Which peptide exchange yield does the source give for FTDPHIITF here?
Answer: Its peptide exchange yield is over 75%.

Question: How did the peptide exchange yield turn out when FSENLIYTYI was run?
Answer: Its peptide exchange yield is 20 to 50%.

Question: Which peptide exchange yield does the source give for RFDDINQEF here?
Answer: The peptide exchange yield was 10 to 20%.

Question: With GTDKQNSTLRY as the binder, how does the peptide exchange yield read?
Answer: Its peptide exchange yield is 50 to 75%.

Question: Which peptide exchange yield does the source give for LQKPVLPLY here?
Answer: Its peptide exchange yield is 20 to 50%.

Question: Which peptide exchange yield does the source give for QTYMDGLLHY here?
Answer: Its peptide exchange yield is over 75%.

Question: Which peptide exchange yield does the source give for NTDSMTLNNTAY here?
Answer: The peptide exchange yield was over 75%.

Question: YMSPDIALLY was tested. Which peptide exchange yield did it give?
Answer: The peptide exchange yield was over 75%.

Question: With KTLQKPVLPLY as the binder, how does the peptide exchange yield read?
Answer: The peptide exchange yield was 20 to 50%.

Question: Which peptide exchange yield does the source give for FTAEEGQLY here?
Answer: Its peptide exchange yield is 50 to 75%.

Question: How did the peptide exchange yield turn out when SMDPVTGYQY was run?
Answer: The peptide exchange yield was 50 to 75%.

Question: With QALQDKLQTFY as the binder, how does the peptide exchange yield read?
Answer: Its peptide exchange yield is 20 to 50%.

Question: Which peptide exchange yield does the source give for AVNALQSVY here?
Answer: Its peptide exchange yield is 20 to 50%.

Question: ELAAGQVVY was tested. Which peptide exchange yield did it give?
Answer: Its peptide exchange yield is 10 to 20%.

Question: With LTDPQVSYV as the binder, how does the peptide exchange yield read?
Answer: Its peptide exchange yield is 50 to 75%.

Question: How did the peptide exchange yield turn out when RLNGSVASY was run?
Answer: The peptide exchange yield was 20 to 50%.

Question: Which peptide exchange yield does the source give for KAFQELGVRY here?
Answer: Its peptide exchange yield is 20 to 50%.

Question: Which peptide exchange yield does the source give for FTESNQYNIY here?
Answer: Its peptide exchange yield is over 75%.

Question: FSELNPLALY was tested. Which peptide exchange yield did it give?
Answer: Its peptide exchange yield is over 75%.

Question: Which peptide exchange yield does the source give for MSPDIALLYL here?
Answer: The peptide exchange yield was 50 to 75%.

Question: EVDRNLIQY was tested. Which peptide exchange yield did it give?
Answer: Its peptide exchange yield is 50 to 75%.

Question: For VTDGINPLI, which peptide exchange yield is on record?
Answer: Its peptide exchange yield is 20 to 50%.

Question: Which peptide exchange yield does the source give for SADHPGLTF here?
Answer: Its peptide exchange yield is 20 to 50%.

Question: DSTDGCLLSF was tested. Which peptide exchange yield did it give?
Answer: The peptide exchange yield was 20 to 50%.

Question: TVTDGTHTDFY was tested. Which peptide exchange yield did it give?
Answer: Its peptide exchange yield is 20 to 50%.

Question: For NSENHILKY, which peptide exchange yield is on record?
Answer: Its peptide exchange yield is over 75%.

Question: How did the peptide exchange yield turn out when MTSTEQSLY was run?
Answer: The peptide exchange yield was 50 to 75%.

Question: LTDTGYLQLY was tested. Which peptide exchange yield did it give?
Answer: The peptide exchange yield was over 75%.

Question: Which peptide exchange yield does the source give for NKEINYFMY here?
Answer: Its peptide exchange yield is 50 to 75%.

Question: Which peptide exchange yield does the source give for IMLSVDQHLY here?
Answer: The peptide exchange yield was 50 to 75%.

Question: With YLYQAPGSLALY as the binder, how does the peptide exchange yield read?
Answer: Its peptide exchange yield is over 75%.

Question: With ITVDVRDEF as the binder, how does the peptide exchange yield read?
Answer: The peptide exchange yield was 10 to 20%.

Question: LTDRDVSFY was tested. Which peptide exchange yield did it give?
Answer: Its peptide exchange yield is over 75%.

Question: SWSAGENDSYS was tested. Which peptide exchange yield did it give?
Answer: Its peptide exchange yield is 10 to 20%.

Question: Which peptide exchange yield does the source give for YFGNYFTYY here?
Answer: Its peptide exchange yield is 10 to 20%.

Question: VLKIELETY was tested. Which peptide exchange yield did it give?
Answer: Its peptide exchange yield is 50 to 75%.

Question: With YADLLIYTY as the binder, how does the peptide exchange yield read?
Answer: The peptide exchange yield was over 75%.

Question: How did the peptide exchange yield turn out when KSFETTVRY was run?
Answer: The peptide exchange yield was 20 to 50%.

Question: For ESAATGQLDY, which peptide exchange yield is on record?
Answer: The peptide exchange yield was 50 to 75%.

Question: How did the peptide exchange yield turn out when EGELSEGEHWY was run?
Answer: The peptide exchange yield was 50 to 75%.

Question: How did the peptide exchange yield turn out when LLDEDNNIKL was run?
Answer: The peptide exchange yield was 20 to 50%.

Question: For DTDDRELRY, which peptide exchange yield is on record?
Answer: The peptide exchange yield was 50 to 75%.

Question: Which peptide exchange yield does the source give for YTCEECGQAF here?
Answer: Its peptide exchange yield is 20 to 50%.

Question: Which peptide exchange yield does the source give for DTGYLQLYY here?
Answer: Its peptide exchange yield is over 75%.

Question: Which peptide exchange yield does the source give for PANYLGKMTY here?
Answer: The peptide exchange yield was 50 to 75%.

Question: For YSPDSFNVSW, which peptide exchange yield is on record?
Answer: The peptide exchange yield was 20 to 50%.

Question: Which peptide exchange yield does the source give for EDLLEVLDMY here?
Answer: Its peptide exchange yield is 20 to 50%.

Question: Which peptide exchange yield does the source give for SSWSAGENDSY here?
Answer: The peptide exchange yield was 50 to 75%.

Question: For EIIRYIFAY, which peptide exchange yield is on record?
Answer: The peptide exchange yield was 20 to 50%.

Question: Which peptide exchange yield does the source give for VSDHLQAGMLGQY here?
Answer: The peptide exchange yield was 50 to 75%.

Question: With NTMDAVPRIDHY as the binder, how does the peptide exchange yield read?
Answer: The peptide exchange yield was over 75%.

Question: STSRLTLFS was tested. Which peptide exchange yield did it give?
Answer: Its peptide exchange yield is 20 to 50%.

Question: How did the peptide exchange yield turn out when PPEANSLQGALY was run?
Answer: The peptide exchange yield was 20 to 50%.

Question: YMTSMALNY was tested. Which peptide exchange yield did it give?
Answer: Its peptide exchange yield is 50 to 75%.

Question: For FGTTPAAEYF, which peptide exchange yield is on record?
Answer: Its peptide exchange yield is 20 to 50%.

Question: For ATNIQLNIDTY, which peptide exchange yield is on record?
Answer: The peptide exchange yield was 50 to 75%.

Question: How did the peptide exchange yield turn out when DGIADASNLSYY was run?
Answer: Its peptide exchange yield is 20 to 50%.

Question: How did the peptide exchange yield turn out when SVDSNLVAY was run?
Answer: The peptide exchange yield was 50 to 75%.

Question: How did the peptide exchange yield turn out when RTGIFPYRF was run?
Answer: Its peptide exchange yield is 20 to 50%.

Question: With PSSMPECLSYY as the binder, how does the peptide exchange yield read?
Answer: Its peptide exchange yield is 50 to 75%.

Question: PSSMPECLSY was tested. Which peptide exchange yield did it give?
Answer: Its peptide exchange yield is over 75%.

Question: How did the peptide exchange yield turn out when FVDTKVPEH was run?
Answer: Its peptide exchange yield is 20 to 50%.

Question: How did the peptide exchange yield turn out when LSDPQAELQFY was run?
Answer: Its peptide exchange yield is over 75%.

Question: How did the peptide exchange yield turn out when VLDPMLDFY was run?
Answer: Its peptide exchange yield is over 75%.

Question: VTTDKPRAY was tested. Which peptide exchange yield did it give?
Answer: Its peptide exchange yield is 20 to 50%.

Question: How did the peptide exchange yield turn out when ESMDIFPLGW was run?
Answer: The peptide exchange yield was 20 to 50%.

Question: HLLSVSLYY was tested. Which peptide exchange yield did it give?
Answer: The peptide exchange yield was 10 to 20%.

Question: With VTDGTHTDFY as the binder, how does the peptide exchange yield read?
Answer: Its peptide exchange yield is 50 to 75%.

Question: For SGALDEAAAY, which peptide exchange yield is on record?
Answer: The peptide exchange yield was 20 to 50%.
